Measurements published in US6958236B2, “Control of gene expression in plants” (priority 2000, dated 2005).

System: pCGS154 reporter
Assay: Transient transfection of S2 Drosophila cells with luciferase reporter and EcR receptor plasmids
Assay type: cell-based
Description: An in vivo cell based assay is designed to measure transcriptional activation by the receptors of a reporter plasmid. S2 Drosophila cells (ATCC CRL-1963) are transiently transfected with luciferase reporter and receptor expression plasmids using the calcium phosphate precipitation procedure (Di Nocera and David (1983) PNAS 80, 7095-7098). S2 cells are plated in 96 well format at a density of 2×10^5 in 166.6 μl of Schneider's Drosophila media supplemented with antibiotics and 10% heat inactivated fetal bovine serum (GIBO-BRL). The following day, 33.4 μl of a calcium phosphate precipitate containing 3-6 ng of pCGS154 reporter plasmid, 3-6 ng of EcR receptor plasmid along with salmon sperm DNA to a total of 400 ng DNA per well is added. Chemical ligands are added 16-24 hours after DNA addition to the cells. Cells are then harvested and extracted 24 hours after chemistry addition following the procedures for the luciferase assay by centrifuging and resuspending the cell pellets in 100 μl of cell culture lysis reagent (Promega). Luciferase activity is quantitated using chemiluminescence (Promega) using an analytical luminescence model 2001 luminometer.
S2 cells contain Drosophila EcR and USP. The endogenous USP can be used as the heterodimerization partner for EcR or exogenous USP expression plasmid can be added to the assay.
To compare the activities of Manduca and Drosophila EcR, S2 cells are transiently transfected using the above procedure with the reporter plasmid pCGS 154 and either full-length Drosophila EcR, DDV, full-length Manduca EcR, or MMV. Tebufenozide at 0.2 µM and 2 μM is used as the chemical ligand. Luciferase assays are performed as described above. All of the results are normalized as a ratio of activity to the light unit value for the pCGS154 reporter without chemistry.
The activities of the EcR-VP16 chimeras are compared by transiently transfecting S2 cells as described in Example 3. Tebufenozide is added to the cells at 0.2 μM concentration. Results are expressed as fold activation, a ratio of the activity of the constructs with chemistry added as compared to activity of the constructs without chemistry. All results are normalized to the luciferase activity of the pCGS154 reporter without receptor addition.
(§1) The activities of the EcR-VP16 chimeras are compared by transiently transfecting S2 cells as in Example 3. Tebufenozide is added to the cells at 0.2 μM concentration. Results are expressed as fold activation of constructs with chemistry as compared to without chemistry. All results are normalized to the luciferase activity of the pCGS154 reporter without receptor.
as §1, with “chemistry addition.” for “chemistry.”

[1] = Example 6, 0.2 μM tebufenozide vs without chemistry, normalized to pCGS154 reporter without receptor

Molecule | Fold Activation With Chemistry Assay #1 (Example 7, 0.2 μM tebufenozide) [fold] | Fold Activation With Chemistry Assay #2 (Example 7, 0.2 μM tebufenozide) [fold] | further results
MFV: EcR chimera: Manduca sexta C+D domains, fall armyworm (Spodoptera frugiperda) E domain, VP16; SEQ ID NO:69-70 (protein) MGREELSPASSINGCSTDGEPRRQKKGPAPRQQEELCLVCGDRASGYHYNALTCEGCKGFFRRSVTKNAVYICKFGHACEMDMYMRRKCQECRLKKCLAVGMRPECVVPESTCKNKRREKEAQREKDKLPVSTTTVDDHMPAIMQCDPPPPEAARIHEVVPRFLTEKLMEQNRLKNVTPLSANQKSLIARLVWYQEGYEQPSEEDLKRVTQTWQLEEEEEEETDMPFRQITEMTILTVQLIVEFAKGLPGFSKISQSDQITLLKASSSEVMMLRVARRYDAATDSVLFANNQAYTRDNYRKAGMSYVIGDLLHFCRCMYSMSMDNVHYALLTAIVIFSDRPGLEQPLLVEEIQRYYLKTLRVYILNQYSASPRCAVLFGKILGVLTELRTLGTQNSNMCISLKLKNRKLPPFLEEIWDVKLAPPTDVSLGDELHLDGEDVAMAHADALDDFDLDMLGDGDSPGPGFTPHDSAPYGALDMADFEFEQMFTDALGIDEYGG | 159.9 | 175.4 | 
MBV: EcR chimera: Manduca sexta C+D domains, black cutworm (Agrotis ipsilon) E domain, VP16; SEQ ID NO:65-66 (protein) MGREELSPASSINGCSTDGEPRRQKKGPAPRQQEELCLVCGDRASGYHYNALTCEGCKGFFRRSVTKNAVYICKFGHACEMDMYMRRKCQECRLKKCLAVGMRPECVVPESTCKNKRREKEAQREKDKLPVSTTTVDDHMPAIMQCDPPPPEAARIHEVVPRFLTEKLMEQNRLKNVTPLSANQKSLIARLVWYQEGYEQPSEEDLKRVTQTWQSDEDEEESDMPFRQITEMTILTVQLIVEFAKGLPGFAKISQSDQITLLKACSSEVMMLRVARRYDAATDSVLFANNQAYSRDNYRKAGMSYVIEDLLHFCRCMYSMMMDNVHYALLTAIVIFSDRPGLEQPLLVEEIQRYYLNTLRVYILNQNSASPRCPVVFAKILGILTELRTLGMQNSNMCISLKLKNRKLPPFLEEIWDVESRGKLAPPTDVSLGDELHLDGEDVAMAHADALDDFDLDMLGDGDSPGPGFTPHDSAPYGALDMADFEFEQMFTDALGIDEYGG | 215.7 | 211.1 | Fold Activation With Chemistry Assay #1 (Example 8, 0.2 μM tebufenozide): 559.1 fold; Fold Activation With Chemistry Assay #2 (Example 8, 0.2 μM tebufenozide): 866.7 fold
MDV: EcR chimera: Manduca sexta C+D domains, Drosophila melanogaster E domain, VP16 activation domain; SEQ ID NO:63-64 (protein) MGREELSPASSINGCSTDGEPRRQKKGPAPRQQEELCLVCGDRASGYHYNALTCEGCKGFFRRSVTKNAVYICKFGHACEMDMYMRRKCQECRLKKCLAVGMRPECVVPESTCKNKRREKEAQREKDKLPVSTTTVDDHMPAIMQCDPPPPEAARIHEVVPRFLTEKLMEQNRLKNVTPLSANQKSLIARLVWYQDGYEQPSEEDLRRIMSQPDENESQTDVSFRHITEITILTVQLIVEFAKGLPAFTKIPQEDQITLLKACSSEVMMLRMARRYDHSSDSIFFANNRSYTRDSYKMAGMADNIEDLLHFCRQMFSMKVDNVEYALLTAIVIFSDRPGLEKAQLVEAIQSYYIDTLRIYILNRHCGDSMSLVFYAKLLSILTELRTLGNQNAEMCFSLKLKNRKLPKFLEEIWDVHAIPPKLAPPTDVSLGDELHLDGEDVAMAHADALDDFDLDMLGDGDSPGPGFTPHDSAPYGALDMADFEFEQMFTDALGIDEYGG | 1.1 | 1.1 | Assay # 1 Fold Activation With Chemistry [1]: 1.20 fold; Assay # 2 Fold Activation With Chemistry [1]: 1.18 fold
MLV: EcR chimera: Manduca sexta C+D domains, Locusta migratoria E domain, VP16; SEQ ID NO:85-86 (protein) MGREELSPASSINGCSTDGEPRRQKKGPAPRQQEELCLVCGDRASGYHYNALTCEGCKGFFRRSVTKNAVYICKFGHACEMDMYMRRKCQECRLKKCLAVGMRPECVVPESTCKNKRREKEAQREKDKLPVSTTTVDDHMPAIMQCDPPPPEAARIHEVVPRFLTEKLMEQNRLKNVTPLSANQKSLIARLVWYQNEYESPSEEDLRRVTSQPTEGEDQSDVRFRHITEITILTVQLIVEFAKRLPGFDKLLREDQIALLKACSSEVMMFRMARRYDVNSDSILFANNQPYTKDSYNLAGMGETIEDMLRFCRQMYAMKVDNAEYALLTAIVIFSERPSLVEGWKVEKIQEIYLEALKAYVDNRRRPKSGTIFAKLLSVLTELRTLGNQNSEMCFSLKLKNKKLPPFLAEIWDVIPKLAPPTDVSLGDELHLDGEDVAMAHADALDDFDLDMLGDGDSPGPGFTPHDSAPYGALDMADFEFEQMFTDALGIDEYGG | 1.7 | 1.0 | 
MEV: EcR chimera: Manduca sexta C+D domains, European corn borer (Ostrinia nubilalis) E domain, VP16; SEQ ID NO:67-68 (protein) MGREELSPASSINGCSTDGEPRRQKKGPAPRQQEELCLVCGDRASGYHYNALTCEGCKGFFRRSVTKNAVYICKFGHACEMDMYMRRKCQECRLKKCLAVGMRPECVVPESTCKNKRREKEAQREKDKLPVSTTTVDDHMPAIMQCDPPPPEAARIHEVVPRFLTEKLMEQNRLKNVTPLSANQKSLIARLVWYQDGYEQPSEEDLKRVTQTWQSADEEDEDSDMPFRQITEMTILTVQLIVEFAKGLPGFSKISQPDQITLLKACSSEVMMLRVARRYDAVSDSVLFANNQAYTRDNYRKAGMAYVIEDLLHFCRCMYSMSMDNVHYALLTAIVIFSDRPGLEQPQLVEEIQRYYLNTLRVYIMNQHSASPRCAVIYAKILSVLTELRTLGMQNSNMCISLKLKNRKLPPFLEEIWDVKLAPPTDVSLGDELHLDGEDVAMAHADALDDFDLDMLGDGDSPGPGFTPHDSAPYGALDMADFEFEQMFTDALGIDEYGG | 363.7 | 131.5 | 
LLV: EcR chimera: Locusta migratoria C+D and E domains, VP16; SEQ ID NO:81-82 (protein) MGREDLSPLSSLNGYSADSCDAKKKKGAAPRQQEELCLVCGDRASGYHYNALTCEGCKGFFRRSITKNAVYQCKYGNNCEIDMYMRRKCQECRLKKCLTVGMRPECVVPEYQCAVKRKEKKAQKDKDKPNSTTNGSPEVMMLKDIDAKVEPERPLSNGIKPVSPEQEELIHRLVYFQNEYESPSEEDLRRVTSQPTEGEDQSDVRFRHITEITILTVQLIVEFAKRLPGFDKLLREDQIALLKACSSEVMMFRMARRYDVNSDSILFANNQPYTKDSYNLAGMGETIEDMLRFCRQMYAMKVDNAEYALLTAIVIFSERPSLVEGWKVEKIQEIYLEALKAYVDNRRRPKSGTIFAKLLSVLTELRTLGNQNSEMCFSLKLKNKKLPPFLAEIWDVIPKLAPPTDVSLGDELHLDGEDVAMAHADALDDFDLDMLGDGDSPGPGFTPHDSAPYGALDMADFEFEQMFTDALGIDEYGG |  |  | Fold Activation With Chemistry (Example 6, third column (LLV, LMV), 0.2 μM tebufenozide): 0.47 fold
DBV: EcR chimera: Drosophila melanogaster C+D domains, black cutworm E domain, VP16; SEQ ID NO:73-74 (protein) MGRDDLSPSSSLNGYSANESCDAKKSKKGPAPRVQEELCLVCGDRASGYHYNALTCEGCKGFFRRSVTKSAVYCCKFGRACEMDMYMRRKCQECRLKKCLAVGMRPECVVPENQCAMKRREKKAQKEKDKMTTSPSSQHGGNGSLASGGGQDFVKKEILDLMTCEPPQHATIPLLPDEILAKCQARNIPSLTYNQLAVIYKLIWYQEGYEQPSEEDLKRVTQTWQSDEDEEESDMPFRQITEMTILTVQLIVEFAKGLPGFAKISQSDQITLLKACSSEVMMLRVARRYDAATDSVLFANNQAYSRDNYRKAGMSYVIEDLLHFCRCMYSMMMDNVHYALLTAIVIFSDRPGLEQPLLVEEIQRYYLNTLRVYILNQNSASPRCPVVFAKILGILTELRTLGMQNSNMCISLKLKNRKLPPFLEEIWDVESRGKLAPPTDVSLGDELHLDGEDVAMAHADALDDFDLDMLGDGDSPGPGFTPHDSAPYGALDMADFEFEQMFTDALGIDEYGG |  |  | Fold Activation With Chemistry Assay #1 (Example 8, 0.2 μM tebufenozide): 17.37 fold; Fold Activation With Chemistry Assay #2 (Example 8, 0.2 μM tebufenozide): 3.94 fold
